Test results: article PMC13546301, “Ternary Neurexin-T178-PTPR complexes represent a pre-synaptic core-module of neuronal synapse organization” (Nature Communications, 2026)

Target: T1, V5-tagged PTPRS (UniProt B0V2N1 30-1907)
T1 construct: Receptor-type tyrosine-protein phosphatase S; cDNA GenBank BC083188.1; also called PTPRSV5; source: tsA201 cells, transfected, CL-91-solubilised membrane fraction; not shown: V5, C-terminal, kept
Assay: affinity purification with mass spectrometry; anti-V5 APs from tsA201 cells expressing NRX1A and PTPRS-V5 with or without T178B; normalized abundance of NRX1A by MS, two independent APs with two controls
Details: partners not purified

T1 sequence (B0V2N1 30-1907): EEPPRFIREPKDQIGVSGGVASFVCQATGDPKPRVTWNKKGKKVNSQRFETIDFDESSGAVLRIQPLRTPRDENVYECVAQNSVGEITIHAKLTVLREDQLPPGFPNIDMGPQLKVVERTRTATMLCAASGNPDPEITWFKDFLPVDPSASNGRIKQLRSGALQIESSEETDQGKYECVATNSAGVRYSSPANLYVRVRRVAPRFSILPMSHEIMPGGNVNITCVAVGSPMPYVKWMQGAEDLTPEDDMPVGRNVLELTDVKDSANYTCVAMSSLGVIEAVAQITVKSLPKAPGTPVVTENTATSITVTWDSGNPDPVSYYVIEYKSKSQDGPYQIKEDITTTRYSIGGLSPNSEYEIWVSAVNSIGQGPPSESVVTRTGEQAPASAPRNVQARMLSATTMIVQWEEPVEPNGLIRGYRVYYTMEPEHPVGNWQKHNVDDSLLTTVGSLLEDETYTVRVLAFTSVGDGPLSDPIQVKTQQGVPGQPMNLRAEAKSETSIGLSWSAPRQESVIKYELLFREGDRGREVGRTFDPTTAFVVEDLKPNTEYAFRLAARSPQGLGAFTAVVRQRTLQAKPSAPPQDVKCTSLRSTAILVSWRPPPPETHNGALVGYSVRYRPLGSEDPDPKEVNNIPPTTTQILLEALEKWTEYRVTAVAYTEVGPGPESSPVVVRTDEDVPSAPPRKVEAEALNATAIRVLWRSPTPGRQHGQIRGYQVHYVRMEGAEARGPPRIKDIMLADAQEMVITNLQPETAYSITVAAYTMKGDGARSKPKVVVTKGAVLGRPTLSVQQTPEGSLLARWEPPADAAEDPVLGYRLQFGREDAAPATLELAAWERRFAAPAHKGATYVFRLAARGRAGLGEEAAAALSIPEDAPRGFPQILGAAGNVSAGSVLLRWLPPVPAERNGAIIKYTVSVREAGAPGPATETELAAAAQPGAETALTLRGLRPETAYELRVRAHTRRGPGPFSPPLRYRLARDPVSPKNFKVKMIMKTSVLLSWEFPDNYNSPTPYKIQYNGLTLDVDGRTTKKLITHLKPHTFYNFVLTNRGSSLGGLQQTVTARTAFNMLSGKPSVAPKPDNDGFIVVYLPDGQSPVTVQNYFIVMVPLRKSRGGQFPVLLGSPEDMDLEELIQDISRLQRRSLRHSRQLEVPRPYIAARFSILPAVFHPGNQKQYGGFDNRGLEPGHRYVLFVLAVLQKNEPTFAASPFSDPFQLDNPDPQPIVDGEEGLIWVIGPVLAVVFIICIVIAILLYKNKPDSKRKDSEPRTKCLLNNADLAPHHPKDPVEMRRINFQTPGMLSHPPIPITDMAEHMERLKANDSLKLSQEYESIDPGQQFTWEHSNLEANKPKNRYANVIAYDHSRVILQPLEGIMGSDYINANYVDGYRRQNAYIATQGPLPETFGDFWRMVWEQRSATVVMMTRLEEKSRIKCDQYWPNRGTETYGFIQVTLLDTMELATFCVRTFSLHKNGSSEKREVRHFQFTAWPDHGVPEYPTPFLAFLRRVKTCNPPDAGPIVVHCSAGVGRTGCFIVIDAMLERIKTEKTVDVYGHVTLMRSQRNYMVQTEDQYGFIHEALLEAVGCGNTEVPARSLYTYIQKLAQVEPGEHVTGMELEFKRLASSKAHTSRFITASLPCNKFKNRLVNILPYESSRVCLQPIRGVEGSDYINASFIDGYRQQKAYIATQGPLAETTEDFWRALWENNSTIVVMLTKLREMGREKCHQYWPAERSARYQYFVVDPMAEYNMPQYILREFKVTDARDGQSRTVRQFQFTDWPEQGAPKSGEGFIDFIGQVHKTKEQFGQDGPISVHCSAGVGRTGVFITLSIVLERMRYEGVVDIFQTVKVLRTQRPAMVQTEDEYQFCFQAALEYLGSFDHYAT

B1: HA-tagged NRX1A (natural protein)
chain: not shown
notes: Neurexin-1-alpha; in pCAG, from Addgene (#58622); also called NRX1A-HA; source: tsA201 cells, transfected, CL-91-solubilised membrane fraction
- fold increase of the interaction with T178B against pairwise expression without T178B: 10 fold
